Measurements reported in patent US20230322953A1 (HARBOUR BIOMED SHANGHAI, published 2023).
Each block holds one binder with its values, some of them ahead of it.

Columns and labels:
[1] = molecular target: T1, cynomolgus monkey 4-1BB (cynomolgus monkey); test: flow cytometry (FACS) on CHO-K1/cyno 4-1BB cells, Experiment 2
T1 construct: whole, on cells; also called cyno 4-1BB

[2] = molecular target: T2, human PD-L1 (programmed death ligand 1) (human, UniProt Q9NZQ7 19-290); test: flow cytometry (FACS) on CHO-K1/hPDL1 cells, Experiment 2
T2 construct: whole, on cells; also called hPDL1; CD274

[3] = molecular target: T3, human 4-1BB (tumor necrosis factor receptor superfamily member 9) (human, UniProt Q07011 24-255); test: cell-based or functional assay
[4] = molecular target: T1, cynomolgus monkey 4-1BB; test: flow cytometry (FACS) on CHO-K1/cyno 4-1BB cells, Experiment 1
[5] = molecular target: T4, human CTLA4 on CHO-K1/hCTLA4 cells (human, UniProt P16410 36-223); test: flow cytometry on CHO-K1/hCTLA4 cells, Experiment 3
T4 construct: whole, on cells; CHO-K1 cell line highly expressing human CTLA4; also called human CTLA4 cell

[6] = molecular target: T4, human CTLA4 on CHO-K1/hCTLA4 cells; test: flow cytometry competition: biotinylated human B7-1-Fc on CHO-K1/hCTLA4 cells, Experiment 2
[7] = molecular target: T5, human BCMA (human, UniProt Q02223 1-184); test: FACS on HEK293T/hBCMA cells, Experiment 1
T5 construct: whole, on cells; also called hBCMA; TNFRSF17
T5 sequence (looked up): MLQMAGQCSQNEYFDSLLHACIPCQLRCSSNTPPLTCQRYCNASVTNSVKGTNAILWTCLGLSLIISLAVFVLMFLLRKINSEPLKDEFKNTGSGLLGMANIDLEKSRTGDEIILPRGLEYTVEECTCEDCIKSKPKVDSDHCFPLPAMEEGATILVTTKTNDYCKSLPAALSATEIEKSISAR

[8] = molecular target: T5, human BCMA; test: FACS on NCI-H929 cells
[9] = molecular target: T6, cynomolgus monkey BCMA (cynomolgus monkey, UniProt A0A2K5UD97 1-183); test: FACS on HEK293T/cyno BCMA cells
T6 construct: whole, on cells; also called cyno BCMA

[10] = molecular target: T3, human 4-1BB (tumor necrosis factor …); test: flow cytometry (FACS) on CHO-K1/hu 4-1BB cells
[11] = molecular target: T2, human PD-L1 (programmed death ligand 1); test: flow cytometry (FACS) on CHO-K1/hPDL1 cells, Experiment 1
[12] = molecular target: T2, human PD-L1 (programmed death ligand 1); test: flow cytometry (FACS) on CHO-K1/hPDL1 cells, Experiment 3

B2: Anti-4-1BB monoclonal antibody urelumab analog, hIgG4 (S228P) (antibody, V domains shown)
VH: QVQLQQWGAGLLKPSETLSLTCAVYGGSFSGYYWSWIRQSPEKGLEWIGEINHGGYVTYNPSLESRVTISVDTSKNQFSLKLSSVTAADTAVYYCARDYGPGNYDWYFDLWGRGTLVTVSS
VL: EIVLTQSPATLSLSPGERATLSCRASQSVSSYLAWYQQKPGQAPRLLIYDASNRATGIPARFSGSGSGTDFTLTISSLEPEDFAVYYCQQRSNWPPALTFGGGTKVEIKR
IFN-γ EC50 (nM), T cells with MDA-MB-231 target cells [3]: 0.536 nM | IL-2 EC50 (nM), T cells with MDA-MB-231 target cells [3]: 2.94 nM

B3: Anti-4-1BB monoclonal antibody utomilumab analog, hIgG2 (antibody, V domains shown)
VH: EVQLVQSGAEVKKPGESLRISCKGSGYSFSTYWISWVRQMPGKGLEWMGKIYPGDSYTNYSPSFQGQVTISADKSISTAYLQWSSLKASDTAMYYCARGYGIFDYWGQGTLVTVSS
VL: SYELTQPPSVSVSPGQTASITCSGDNIGDQYAHWYQQKPGQSPVLVIYQDKNRPSGIPERFSGSNSGNTATLTISGTQAMDEADYYCATYTGFGSLAVFGGGTKLTVLG
notes: tied to PR000483 by the list of control molecules; also called PR000483
EC50 [4]: 0.347 nM | Maximum MFI [4]: 5390 MFI | EC50 [1]: 0.337 nM

B4: HER2xCTLA4 bispecific antibody molecule PR002672 (bispecific antibody, human IgG1)
chain 1: not shown
chain 2: not shown
chain 3: EVQLVESGGGLIQPGGSLRLSCAVSGFTVSKNYMSWVRQAPGKGLEWVSVVYSGGSKTYADSVKGRFTISRDNSKNTLYLQMNSLRAEDTAVYYCARAVPHSPSSFDIWGQGTMVTVSSGGGGSEVQLVESGGGLIQPGGSLRLSCAVSGFTVSKNYMSWVRQAPGKGLEWVSVVYSGGSKTYADSVKGRFTISRDNSKNTLYLQMNSLRAEDTAVYYCARAVPHSPSSFDIWGQGTMVTVSSEPKSSDKTHTCPPCPAPELLGGPDVFLFPPKPKDTLMISRTPEVTCVVVDVSHEDPEVKFNWYVDGVEVHNAKTKPREEQYNSTYRVVSVLTVLHQDWLNGKEYKCKVSNKALPAPEEKTISKAKGQPREPQVCTLPPSREEMTKNQVSLSCAVKGFYPSDIAVEWESNGQPENNYKTTPPVLDSDGSFFLVSKLTVDKSRWQQGNVFSCSVMHEALHNHYTQKSLSLSPGK
notes: Structure 18 Fab(cross Fd/LC)-Fc-VH-VH (trivalent asymmetric); PR000210 Fab, two PR000184 VH in tandem, linker GS_5
EC50 [5]: 2.79 nM | IC50 [6]: 0.983 nM

B5: PR002929 (bispecific antibody, human IgG1, lambda, L234A L235A)
light: QAVVTQEPSLTVSPGGTVTLTCRSSTGAVTTSNYANWVQQKPGQAPRGLIGGTNKRAPWTPARFSGSLLGDKAALTLLGAQPEDEAEYFCALWYSNLWVFGGGTKLTVLGQPKAAPSVTLFPPSSEELQANKATLVCLISDFYPGAVTVAWKADSSPVKAGVETTTPSKQSNNKYAASSYLSLTPEQWKSHRSYSCQVTHEGSTVEKTVAPTECS
heavy: not shown
chain: EVQLVETGGGLIQPGGSLRLSCAASGFTVSDNYMTWVRQAPGKGLEWVSVIFSGGNTYYADSVKGRFTISRDNAKNTLYLQMNSLRAEDTALYYCARRNYDDTRGTDVFDIWGQGTMVTVSSASEPKSSDKTHTCPPCPAPEAAGGPSVFLFPPKPKDTLMISRTPEVTCVVVDVSHEDPEVKFNWYVDGVEVHNAKTKPREEQYNSTYRVVSVLTVLHQDWLNGKEYKCKVSNKALPAPIEKTISKAKGQPREPQVCTLPPSREEMTKNQVSLSCAVKGFYPSDIAVEWESNGQPENNYKTTPPVLDSDGSFFLVSKLTVDKSRWQQGNVFSCSVMHEALHNHYTQKSLSLSPGK
EC50 [7]: 9.02 nM | Maximum MFI [7]: 17600 | EC50 [8]: 50.2 nM | Maximum MFI [9]: 13800

B9: Anti-PD-L1 91G3H5H3 (D54E), hIgG1 (N297A) (antibody)
light: DIQMTQSPSTLSASVGDRVTVTCRASQSIYIWLAWYQQKPGKAPNLLIYKASSLETGVPSRFSGSGSGTEFTLTISSLQPDDFATYYCQQYYGSSRTFGQGTKVEIKRTVAAPSVFIFPPSDEQLKSGTASVVCLLNNFYPREAKVQWKVDNALQSGNSQESVTEQDSKDSTYSLSSTLTLSKADYEKHKVYACEVTHQGLSSPVTKSFNRGEC
heavy: not shown
notes: hIgG1 (N297A); also called PR000265
EC50 [11]: 0.781 nM | Maximum MFI [11]: 2000 MFI | EC50 [2]: 0.356 nM | EC50 [12]: 1.56 nM | Maximum MFI [12]: 47000 MFI

Continued, in another order:

EC50 [1]: 1.55 nM
B1: PR004270, PD-L1×4-1BB bispecific antibody molecule of Fab-HCAb symmetric structure (bispecific antibody, human IgG1)
chain 1: EVQLVESGGGLVQPGGSLRLSCAASGFTFSSYWMSWVRQAPGKGLEWVANIKQEGSEKYYVDSVKGRFTISRDNAKNSLYLQMNSLRAEDTAVYYCARDRAVAGAFDIWGQGTMVTVSSASTKGPSVFPLAPSSKSTSGGTAALGCLVKDYFPEPVTVSWNSGALTSGVHTFPAVLQSSGLYSLSSVVTVPSSSLGTQTYICNVNHKPSNTKVDKKVEPKSC
chain 2: not shown
notes: Structure 1 Fab(CL)-VH-Fc; Fab of PR000265, VH of PR001760; linker H1_15, human IgG1 hinge (C220S); human IgG1 (L234A, L235A)
EC50 [2]: 0.963 nM

Maximum MFI [7]: 13400 | Maximum MFI [8]: 1840 | Maximum MFI [9]: 9170
B6: PR001990 (bispecific antibody, human IgG1, lambda, L234A L235A)
light: QAVVTQEPSLTVSPGGTVTLTCRSSTGAVTTSNYANWVQQKPGQAPRGLIGGTNKRAPWTPARFSGSLLGDKAALTLLGAQPEDEAEYFCALWYSNLWVFGGGTKLTVLGQPKAAPSVTLFPPSSEELQANKATLVCLISDFYPGAVTVAWKADSSPVKAGVETTTPSKQSNNKYAASSYLSLTPEQWKSHRSYSCQVTHEGSTVEKTVAPTECS
heavy: EVQLLESGGGLVQPGGSLRLSCAASGFTFNTYAMNWVRQAPGKGLEWVSRIRSKYNNYATYYADSVKDRFTISRDDSKSTLYLQMNSLRAEDTAVYYCVRHGNFGNSYVSWFAYWGQGTLVTVSSASTKGPSVFPLAPSSKSTSGGTAALGCLVKDYFPEPVTVSWNSGALTSGVHTFPAVLQSSGLYSLSSVVTVPSSSLGTQTYICNVNHKPSNTKVDKKVEPKSCDKTHTCPPCPAPEAAGGPSVFLFPPKPKDTLMISRTPEVTCVVVDVSHEDPEVKFNWYVDGVEVHNAKTKPREEQYNSTYRVVSVLTVLHQDWLNGKEYKCKVSNKALGAPIEKTISKAKGQPREPQVYTLPPCREEMTKNQVSLWCLVKGFYPSDIAVEWESNGQPENNYKTTPPVLDSDGSFFLYSKLTVDKSRWQQGNVFSCSVMHEALHNHYTQKSLSLSPGK
chain: EVQLVETGGGLIQPGGSLRLSCAASGFTVSDNYMTWVRQAPGKGLEWVSVIFSGGNTYYADSVKGRFTISRDNAKNTLYLQMNSLRAEDTALYYCARRNYDDTRGTDVFDIWGQGTMVTVSSASEPKSSDKTHTCPPCPAPEAAGGPSVFLFPPKPKDTLMISRTPEVTCVVVDVSHEDPEVKFNWYVDGVEVHNAKTKPREEQYNSTYRVVSVLTVLHQDWLNGKEYKCKVSNKALGAPIEKTISKAKGQPREPQVCTLPPSREEMTKNQVSLSCAVKGFYPSDIAVEWESNGQPENNYKTTPPVLDSDGSFFLVSKLTVDKSRWQQGNVFSCSVMHEALHNHYTQKSLSLSPGK

EC50 [7]: 14.8 nM | Maximum MFI [7]: 23900 | Maximum MFI [8]: 3840 | Maximum MFI [9]: 22000
B7: PR002935 (bispecific antibody, human IgG1, lambda, L234A L235A)
light: QAVVTQEPSLTVSPGGTVTLTCRSSTGAVTTSNYANWVQQKPGQAPRGLIGGTNKRAPWTPARFSGSLLGDKAALTLLGAQPEDEAEYFCALWYSNLWVFGGGTKLTVLGQPKAAPSVTLFPPSSEELQANKATLVCLISDFYPGAVTVAWKADSSPVKAGVETTTPSKQSNNKYAASSYLSLTPEQWKSHRSYSCQVTHEGSTVEKTVAPTECS
heavy: not shown
chain: EVQLVETGGGLIQPGGSLRLSCAASGFTVSDNYMTWVRQAPGKGLEWVSVIFSGGNTYYADSVKGRFTISRDNAKNTLYLQMNSLRAEDTALYYCARRNYDDTRGTDVFDIWGQGTMVTVSSASEPKSSDKTHTCPPCPAPEAAGGPSVFLFPPKPKDTLMISRTPEVTCVVVDVSHEDPEVKFNWYVDGVEVHNAKTKPREEQYNSTYRVVSVLTVLHQDWLNGKEYKCKVSNKALPAPIEKTISKAKGQPREPQVCTLPPSREEMTKNQVSLSCAVKGFYPSDIAVEWESNGQPENNYKTTPPVLDSDGSFFLVSKLTVDKSRWQQGNVFSCSVMHEALHNHYTQKSLSLSPGK

EC50 [4]: 1.86 nM | Maximum MFI [4]: 4980 MFI
B8: PR003549, PD-L1×4-1BB bispecific antibody molecule of IgG-VH tetravalent symmetric structure (bispecific antibody)
light: DIQMTQSPSTLSASVGDRVTVTCRASQSIYIWLAWYQQKPGKAPNLLIYKASSLETGVPSRFSGSGSGTEFTLTISSLQPDDFATYYCQQYYGSSRTFGQGTKVEIKRTVAAPSVFIFPPSDEQLKSGTASVVCLLNNFYPREAKVQWKVDNALQSGNSQESVTEQDSKDSTYSLSSTLTLSKADYEKHKVYACEVTHQGLSSPVTKSFNRGEC
heavy: EVQLVESGGGLVQPGGSLRLSCAASGFTFSSYWMSWVRQAPGKGLEWVANIKQEGSEKYYVDSVKGRFTISRDNAKNSLYLQMNSLRAEDTAVYYCARDRAVAGAFDIWGQGTMVTVSSASTKGPSVFPLAPSSKSTSGGTAALGCLVKDYFPEPVTVSWNSGALTSGVHTFPAVLQSSGLYSLSSVVTVPSSSLGTQTYICNVNHKPSNTKVDKKVEPKSCDKTHTCPPCPAPEAAGGPSVFLFPPKPKDTLMISRTPEVTCVVVDVSHEDPEVKFNWYVDGVEVHNAKTKPREEQYNSTYRVVSVLTVLHQDWLNGKEYKCKVSNKALGAPIEKTISKAKGQPREPQVYTLPPSREEMTKNQVSLTCLVKGFYPSDIAVEWESNGQPENNYKTTPPVLDSDGSFFLYSKLTVDKSRWQQGNVFSCSVMHEALHNHYTQKSLSLSPGEPKSSDKTHTPPPPPRTEVQLLESGGGLVQLGGSLRLSCAASGFTFSRYAMTWVRQAPEKGLEWVSSISGSGDDTYYGDSVKGRFTISRDNSQNTVYLQMNSLRAEDTAVYFCAKEKAGTTGDYYYNVDVWGQGTTVTVSS
notes: Structure 5; IgG PR000265, VH of PR001758 at C-terminus of heavy chain; linker H1_15-RT; human IgG1 (L234A, L235A, P329G)
EC50 [10]: 1.9 nM | Maximum MFI [10]: 1550 MFI | EC50 [11]: 1.56 nM | Maximum MFI [11]: 2220 MFI | IFN-γ EC50 (nM), T cells with MDA-MB-231 target cells [3]: 0.0695 nM | IL-2 EC50 (nM), T cells with MDA-MB-231 target cells [3]: 0.12 nM
